What was measured:
[1] = molecular target: Smc5/6 holo-complex (S5-S6-N2/N1-N3-N4) (Saccharomyces cerevisiae, UniProt Q08204;Q12749;P38632;Q07913;Q05541;P43124 1-1093;1-1114;1-267;1-336;1-303;1-402); assay: EMSA; Hill slope 3.5; 200 nM DNA; two shifted species; 3 repeats; EMSA: 200 nM hairpin, 20 mM HEPES-NaOH pH 7.5, 150 mM NaCl, 0.5 mM TCEP, 30 min at 4 C; 0.8% TBE-agarose gel, 50 V, 3 h, 4 C; conditions: protein: recombinant, tags: Smc5-FLAG, Smc6-AVI-HIS, HA-Nse2, HIS-TEV-Nse1, Nse3 untagged, Nse4-HALO-Myc, copies: 1;1;1;1;1;1, label: fluorescein on position 5 of thymine, 6-carbon spacer, 48 bp stem, 4 nt loop AATA, blunt end
Nse5/6 = molecular target: T1, Nse5/6 (Saccharomyces cerevisiae, UniProt Q03718;P40026 1-556;1-464); assay: EMSA; more extensive concentration range; EMSA: 200 nM hairpin, 20 mM HEPES-NaOH pH 7.5, 150 mM NaCl, 0.5 mM TCEP, 30 min at 4 C; 0.8% TBE-agarose gel, 50 V, 3 h, 4 C; conditions: protein: recombinant, tags: Nse5-C.tag (GAAEPEA), HIS-3C-Nse6, copies: 1;1, label: fluorescein on position 5 of thymine, 6-carbon spacer, 48 bp stem, 4 nt loop AATA, blunt end
T1 sequence 1: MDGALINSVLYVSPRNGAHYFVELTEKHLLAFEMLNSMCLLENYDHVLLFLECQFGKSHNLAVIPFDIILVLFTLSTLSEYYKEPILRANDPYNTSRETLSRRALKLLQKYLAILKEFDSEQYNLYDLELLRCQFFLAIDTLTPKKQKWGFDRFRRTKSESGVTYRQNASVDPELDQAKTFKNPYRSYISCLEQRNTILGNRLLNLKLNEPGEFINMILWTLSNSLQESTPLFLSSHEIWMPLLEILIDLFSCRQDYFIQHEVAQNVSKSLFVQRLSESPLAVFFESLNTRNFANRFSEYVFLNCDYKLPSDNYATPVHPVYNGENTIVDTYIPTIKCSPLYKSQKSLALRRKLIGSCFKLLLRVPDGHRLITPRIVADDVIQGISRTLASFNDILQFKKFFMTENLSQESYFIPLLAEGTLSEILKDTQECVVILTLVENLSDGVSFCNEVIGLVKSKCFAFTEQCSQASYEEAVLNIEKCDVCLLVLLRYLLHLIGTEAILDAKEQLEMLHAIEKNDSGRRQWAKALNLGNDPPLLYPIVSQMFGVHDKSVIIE
T1 sequence 2: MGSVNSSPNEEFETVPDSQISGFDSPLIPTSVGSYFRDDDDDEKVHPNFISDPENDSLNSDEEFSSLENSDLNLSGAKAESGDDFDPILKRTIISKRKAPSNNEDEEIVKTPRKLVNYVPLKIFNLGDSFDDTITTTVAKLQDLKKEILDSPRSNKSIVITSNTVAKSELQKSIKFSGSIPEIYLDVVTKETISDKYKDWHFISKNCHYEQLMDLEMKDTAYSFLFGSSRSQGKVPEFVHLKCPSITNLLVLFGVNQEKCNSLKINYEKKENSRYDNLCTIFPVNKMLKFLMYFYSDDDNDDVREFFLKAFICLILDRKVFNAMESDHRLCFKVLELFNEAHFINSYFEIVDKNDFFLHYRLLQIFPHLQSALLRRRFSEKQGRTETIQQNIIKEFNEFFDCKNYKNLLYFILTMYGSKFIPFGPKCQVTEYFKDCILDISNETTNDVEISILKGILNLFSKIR

[2] = molecular target: Smc5/6 core complex (S5-S6-N2) (Saccharomyces cerevisiae, UniProt Q08204;Q12749;P38632 1-1093;1-1114;1-267); assay: EMSA; some aggregated material in wells at high concentration; EMSA: 200 nM hairpin, 20 mM HEPES-NaOH pH 7.5, 150 mM NaCl, 0.5 mM TCEP, 30 min at 4 C; 0.8% TBE-agarose gel, 50 V, 3 h, 4 C; conditions: protein: recombinant, tags: Smc5-FLAG, Smc6-AVI-HIS, HA-Nse2, copies: 1;1;1, label: fluorescein on position 5 of thymine, 6-carbon spacer, 48 bp stem, 4 nt loop AATA, blunt end
Sequence of Smc5/6 core complex (S5-S6-N2) (Q08204 whole entry, chain 1 of 3): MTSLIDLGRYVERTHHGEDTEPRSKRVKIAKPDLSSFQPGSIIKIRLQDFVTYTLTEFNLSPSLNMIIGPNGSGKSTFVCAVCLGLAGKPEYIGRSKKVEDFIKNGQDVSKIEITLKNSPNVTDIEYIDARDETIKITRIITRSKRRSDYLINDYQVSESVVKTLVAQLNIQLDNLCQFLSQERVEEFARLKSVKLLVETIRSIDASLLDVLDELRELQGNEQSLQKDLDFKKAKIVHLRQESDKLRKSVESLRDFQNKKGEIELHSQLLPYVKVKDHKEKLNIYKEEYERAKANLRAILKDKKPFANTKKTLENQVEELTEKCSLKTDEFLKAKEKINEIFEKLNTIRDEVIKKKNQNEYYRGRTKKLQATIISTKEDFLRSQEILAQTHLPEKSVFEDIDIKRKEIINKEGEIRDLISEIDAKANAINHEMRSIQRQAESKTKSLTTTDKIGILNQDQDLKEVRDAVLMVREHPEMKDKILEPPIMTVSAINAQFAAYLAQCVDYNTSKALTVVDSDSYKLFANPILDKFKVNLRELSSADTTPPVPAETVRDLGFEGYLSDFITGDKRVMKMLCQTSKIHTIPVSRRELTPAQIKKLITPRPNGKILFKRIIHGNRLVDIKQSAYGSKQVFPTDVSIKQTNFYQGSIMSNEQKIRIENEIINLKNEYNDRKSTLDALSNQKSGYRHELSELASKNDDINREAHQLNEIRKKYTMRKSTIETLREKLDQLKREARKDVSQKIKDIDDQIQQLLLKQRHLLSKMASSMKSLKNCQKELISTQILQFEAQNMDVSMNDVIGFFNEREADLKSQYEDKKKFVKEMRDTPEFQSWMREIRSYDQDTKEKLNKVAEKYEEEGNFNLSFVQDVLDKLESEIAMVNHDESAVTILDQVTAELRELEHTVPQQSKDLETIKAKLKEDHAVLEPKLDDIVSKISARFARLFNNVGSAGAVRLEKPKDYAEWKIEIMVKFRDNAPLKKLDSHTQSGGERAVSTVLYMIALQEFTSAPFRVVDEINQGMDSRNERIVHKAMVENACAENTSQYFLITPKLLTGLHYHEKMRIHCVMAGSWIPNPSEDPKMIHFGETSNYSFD
Sequence of Smc5/6 core complex (S5-S6-N2) (Q12749 whole entry, chain 2 of 3): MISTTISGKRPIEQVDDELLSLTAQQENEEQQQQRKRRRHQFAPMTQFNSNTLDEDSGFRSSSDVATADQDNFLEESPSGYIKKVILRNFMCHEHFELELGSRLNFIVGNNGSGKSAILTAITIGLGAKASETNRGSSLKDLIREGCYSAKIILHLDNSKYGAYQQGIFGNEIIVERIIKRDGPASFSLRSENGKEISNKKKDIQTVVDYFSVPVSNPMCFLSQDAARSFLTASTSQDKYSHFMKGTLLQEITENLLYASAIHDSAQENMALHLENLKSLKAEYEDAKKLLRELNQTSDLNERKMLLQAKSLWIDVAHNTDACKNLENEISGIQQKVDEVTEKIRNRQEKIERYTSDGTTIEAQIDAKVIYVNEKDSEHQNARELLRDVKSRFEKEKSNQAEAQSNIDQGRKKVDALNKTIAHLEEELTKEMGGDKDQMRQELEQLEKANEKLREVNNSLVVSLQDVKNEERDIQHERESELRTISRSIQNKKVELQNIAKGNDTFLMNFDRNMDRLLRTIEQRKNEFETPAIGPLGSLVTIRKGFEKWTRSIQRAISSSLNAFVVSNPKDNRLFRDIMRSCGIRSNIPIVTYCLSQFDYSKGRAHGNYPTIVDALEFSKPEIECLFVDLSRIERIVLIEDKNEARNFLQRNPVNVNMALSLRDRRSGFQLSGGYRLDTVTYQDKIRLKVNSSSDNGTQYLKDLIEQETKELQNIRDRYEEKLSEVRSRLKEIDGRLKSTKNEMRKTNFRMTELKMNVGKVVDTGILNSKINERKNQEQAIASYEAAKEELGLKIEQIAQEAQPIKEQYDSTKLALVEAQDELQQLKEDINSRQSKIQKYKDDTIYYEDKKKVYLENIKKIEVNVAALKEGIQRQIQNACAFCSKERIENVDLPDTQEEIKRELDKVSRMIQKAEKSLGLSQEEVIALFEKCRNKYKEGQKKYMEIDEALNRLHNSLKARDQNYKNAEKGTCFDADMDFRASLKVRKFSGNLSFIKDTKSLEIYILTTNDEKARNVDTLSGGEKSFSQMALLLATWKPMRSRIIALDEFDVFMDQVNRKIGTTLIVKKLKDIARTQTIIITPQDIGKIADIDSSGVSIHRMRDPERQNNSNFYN
Sequence of Smc5/6 core complex (S5-S6-N2) (P38632 whole entry, chain 3 of 3): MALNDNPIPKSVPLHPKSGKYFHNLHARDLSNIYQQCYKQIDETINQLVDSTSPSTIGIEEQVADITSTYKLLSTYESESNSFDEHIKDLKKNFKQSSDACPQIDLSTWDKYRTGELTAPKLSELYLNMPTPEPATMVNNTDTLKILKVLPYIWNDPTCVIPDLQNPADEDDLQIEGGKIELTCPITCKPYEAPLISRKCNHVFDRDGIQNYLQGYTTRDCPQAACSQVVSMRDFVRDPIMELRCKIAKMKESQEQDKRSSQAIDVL

B1: oligonucleotide C, self-annealed dsDNA hairpin (structured_DNA)
DNA: ATCAGTACTTGTCAACACGAGCAGCCCGTATATTCTCCTACAGCACTAAATATAGTGCTGTAGGAGAATATACGGGCTGCTCGTGTTGACAAGTACTGAT
modifications: internal fluorescein-dT (iFT), between S3 and S4 (position 51, in loop)
- Kd [1]: ~220 nM
- binding result (Nse5/6): no binding
- binding result [2]: no binding
